assay: soluble on expression in E. coli; label from the status in PepcDB or PDB records

| Sequence | soluble on expression in E. coli |
| --- | --- |
| KKGYEVLRDPHLNKGMAFTLEERQQLNIHGLLPPCFLGQDAQVYSILKNFERLTSDLDRYILLMSLQDRNEKLFYKVLTSDIERFMPIVYTPTVGLACQHYGLAFRRPRGLFITIHDRGHIATMLQSWPESVIKAIVVTDGERILGLGDLGCYGMGIPVGKLALYTACGGVKPHQCLPVMLDVGTDNETLLKDPLYIGLRHKRIRGQAYDDLLDEFMEAVTSRYGMNCLIQFEDFANANAFRLLHKYRNKYCTFNDDIQGTASVAVAGLLAALRITKNRLSDHTVLFQGAGEAALGIANLIVMAMQKEGVSKEEAIKRIWMVDSKGLIVKGRASLTPEKEHFAHEHCEMKNLEDIVKDIKPTVLIGVAAIGGAFTQQILQDMAAFNKRPIIFALSNPTSKAECTAEQLYKYTEGRGIFASGSPFDPVTLPSGQTLYPGQGNNSYVFPGVALGVISCGLKHIGDDVFLTTAEVIAQEVSEENLQEGRLYPPLVTIQQVSLKIAVRIAKEAYRNNTASTYPQPEDLEAFIRSQVYSTDYNCFVADSYTWPEEAMKVK | soluble |
| GNLSFLATSDGASLAYRLDGAAEKPLLALSNSIGTTLHMWDAQLPALTRHFRVLRYDARGHGASSVPPGPYTLARLGEDVLELLDALEVRRAHFLGLSLGGIVGQWLALHAPQRIERLVLANTSAWLGPAAQWDERIAAVLQAEDMSETAAGFLGNWFPPALLERAEPVVERFRAMLMATNRHGLAGSFAAVRDTDLRAQLARIERPTLVIAGAYDTVTAASHGELIAASIAGARLVTLPAVHLSNVEFPQAFEGAVLSFLGA | not soluble |
| MSKGKVCLAYSGGLDTSVILAWLLDQGYEVVAFMANVGQEEDFDAAKEKALKIGACKFVCVDCREDFVKDILFPAVQVNAVYEDVYLLGTSLARPVIAKAQIDVAKQEGCFAVSHGCTGKGNDQIRFELSFYALKPDVKCITPWRMPEFFERFAGRKDLLDYAAQKGIPVAQTKAKPWSTDENQAHISYEAGILEDPDTTPPKDMWKLIVDPMDAPDQPQDLTIDFERGLPVKLTYTDNKTSKEVSVTKPLDVFLAASNLARANGVGRIDIVEDRYINLKSRGCYEQAPLTVLRKAHVDLEGLTLDKEVRQLRDSFVTPNYSRLIYNGFLLHPECEYIRSMIQPSQNSVNGTVRVRLYKGNVIILGRSTKTEKLYDPTESSMDELTGFLPTDTTGFIAIQAIRIKKYGESKKTKGEELTL | soluble |
| MITMNMNDYKNKRVPPDWCPGCGNFAQLSAITMALAELKIDPKDVVVASGIGCSSNMPEFLNTYGFHGLHGRLVPFAAGVKWANSKLTVIAYGGDGDGFFEGTQHFYHTAKRNVDITYMVSDNQVFGLTTGQASPTAPIGLKTKTTPDGNIETPFNPIAFALNAGATFVARAFSGDIKHLKDITVRAIKHKGFSFIDVISPCVTWNKENSYEYFRPRVYHLENNDVTNFDQAYKLAFEWGDHIPIGVFYEVERPTYEDLDEVLKEGPLVEQGIHKLTEDDLEEFA | not soluble |
| MSLKYKRIVFKVGTSSITHSDGSLSRGKIQTITCQLAALHHAGHELVLVSSGAVAAGFGALGFKKRPVKIADKQASAAVGQGLLMEEYTANLSSDGIVSAQILLSRADFADKRRYQNAGGALSVLLQRRAVPIINENDTVSVEELKIGDNDTLSAQVAAMIQADLLVLLTDIDGLYTGNPNSNPDAVRLDKIEHINHEIIEMAGGSGSANGTGGMLTKIKAATIAAESGVPVYICSSLKPDALAEAAEHQADGSFFVPRAKGLRTQKQWLAFYSESRGSVYVDEGAEHALSEQGKSLLMSGIAGIEGHFSRMDTVTVYSKATKQPLGKGRVLFGSAAAEDLLKSRKAKGVFIHRDDWISITPEIRLLLTEFEGHHHHHH | soluble |
| GMSSDVQKGDNLETPGARDLLLQTASNIMREGDVVDISLSELSLRSGLNSALVKYYFGNKAGLLKALLDRDMENIVKSVDALLAKDDMSPEAKLRRHISKCIDTYYDYPYLNRLLMRLVRDSDEAEAKRIADQYLLPLHRAYNRFIGEGVKAGVFRPINPQLFYFTVTGAADRFFSARLVLKHCFDQDTLTEQLRDSYREHTVDFIMAGILAH | soluble |
| MKIAAIYTQSVGPLPDGEIRFENDWSGEIESNVLITGPNGCGKSTLLRAISLLWRAFGHWLGTGTRLNIKDESYTWFYRWDASCAMILDSFSPKSEDQIGLFLGSEAFLVQLKEKYPQVYWLGETVSRTKGTTPETTVFTSSEHFFLPYKNWWSHWSSQYQRLVLKGPSVDMPNLVYLDAEARRWVRPQKDIGSLSPDDSTQAWLATYEVNDNWKGQLESSLFNMKATMPGEYPEMIATLNQFFSGKRIEAEIHPGQRQRVLLDSGNDHSLDALSSGEHQVLIMLFTVQRWLQPGGVVLIDEPDLHLHPSLISPLLASIENIVARKNGQLVMTSHATDIWQRYDNMGLRIDLTDGKDAENGQRLEHHHHHH | soluble |
